Experimental data taken from patent US7642244 (Hoffmann-La Roche, dated 2010).
Starred links: 1 amine or outer side, 2 acyl side, 3 side chain; linkers in the order of their positions; H or OH if unused. Non-standard residues stand in square brackets, D forms with d. Primed or numbered codes have the meaning given here. *: point of attachment. Pqa = 4-oxo-6-(1-piperazinyl)-3(4H)-quinazoline-acetic acid, O=C(Cn1cnc2ccc(N3CCN([*:1])CC3)cc2c1=O)[*:2]; Adamantane1carbonyl = O=C(C12CC3CC(CC(C3)C1)C2)*; PEG30,000 SSA″ = PEG-CH2CH2NHCOCH2CH2CO-; PEG30,000 SPA = (PEG-30,000)CH2CH2CO; NMeR = CN[C@@H](CCCNC(=N)N)C(=O)O

T1: human NPY2 receptor (human, UniProt P49146 1-381)
T1 sequence (looked up): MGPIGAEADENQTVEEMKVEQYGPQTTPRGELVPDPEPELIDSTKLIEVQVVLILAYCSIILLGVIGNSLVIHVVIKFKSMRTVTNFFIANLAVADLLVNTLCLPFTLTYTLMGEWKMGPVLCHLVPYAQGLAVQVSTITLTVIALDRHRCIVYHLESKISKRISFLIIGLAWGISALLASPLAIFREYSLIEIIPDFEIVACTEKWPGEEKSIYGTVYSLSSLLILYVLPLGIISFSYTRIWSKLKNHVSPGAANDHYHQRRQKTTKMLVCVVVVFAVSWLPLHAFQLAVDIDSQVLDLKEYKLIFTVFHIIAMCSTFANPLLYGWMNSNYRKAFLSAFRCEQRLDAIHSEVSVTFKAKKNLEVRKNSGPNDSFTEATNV

T2: Y5R
T2 sequence (Q15761 whole entry, species assumed, looked up): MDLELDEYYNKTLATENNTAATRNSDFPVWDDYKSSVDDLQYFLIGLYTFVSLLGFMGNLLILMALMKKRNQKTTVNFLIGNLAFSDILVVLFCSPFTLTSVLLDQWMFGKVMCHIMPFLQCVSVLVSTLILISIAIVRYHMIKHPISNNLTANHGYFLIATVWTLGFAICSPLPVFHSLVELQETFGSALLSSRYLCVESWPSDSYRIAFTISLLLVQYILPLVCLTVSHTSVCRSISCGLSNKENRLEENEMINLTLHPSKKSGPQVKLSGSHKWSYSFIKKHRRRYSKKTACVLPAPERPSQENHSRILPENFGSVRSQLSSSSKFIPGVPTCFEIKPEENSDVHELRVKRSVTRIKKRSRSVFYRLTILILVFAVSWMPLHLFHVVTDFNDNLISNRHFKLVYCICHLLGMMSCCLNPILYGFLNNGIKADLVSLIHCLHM


Assays:
Assay in all cases: cell-based or functional assay
[1] = biological target: Y4R
[2] = biological target: T1, human NPY2 receptor
[3] = biological target: T2, Y5R
[4] = biological target: Y1R
Y1R, sequence (P25929 whole entry): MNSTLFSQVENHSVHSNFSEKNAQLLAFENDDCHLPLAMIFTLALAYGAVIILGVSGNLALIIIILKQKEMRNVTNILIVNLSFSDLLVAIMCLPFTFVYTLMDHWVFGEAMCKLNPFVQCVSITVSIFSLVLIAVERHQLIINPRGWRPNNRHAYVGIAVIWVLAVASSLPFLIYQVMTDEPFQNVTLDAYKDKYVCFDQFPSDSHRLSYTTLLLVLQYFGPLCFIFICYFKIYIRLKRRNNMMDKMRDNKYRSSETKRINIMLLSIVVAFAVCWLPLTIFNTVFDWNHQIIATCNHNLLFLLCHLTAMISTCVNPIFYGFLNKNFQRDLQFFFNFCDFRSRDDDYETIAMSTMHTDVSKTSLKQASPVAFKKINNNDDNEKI

| Binder | Y4R EC50 (nM) FLIPR [1] | Y2R EC50 (nM) FLIPR [2] | Y2R EC50 (nM) cAMP [2] | Y5R EC50 (nM) FLIPR [3] | Y1R EC50 (nM) FLIPR [4] |
| --- | --- | --- | --- | --- | --- |
| Adamantane1carbonyl-IK[Pqa]RHYLNWVTRQ[NMeR]Y-NH2 [Adamantoyl-Ile-Lys-Pqa-Arg-His-Tyr-Leu-Asn-Trp-Val-Thr-Arg-Gln-(NMe)Arg-Tyr-NH2] | > 5000 nM | 2.33 nM | 2.9 nM | > 5000 nM | > 5000 nM |
| Ac-IK(PEG30,000 SSA″)[Pqa]RHYLNWVTRQ[NMeR]Y-NH2 | > 5000 nM | 1080 nM | 20.7 nM | > 5000 nM | > 5000 nM |
| IKXRHYLNLVTRQRW (HELM PEPTIDE1{I.K.[O=C(Cn1cnc2ccc(N3CCN([*:1])CC3)cc2c1=O)[*:2]].R.H.Y.L.N.L.V.T.R.Q.[meR].W.[am]}$$$$V2.0; SMILES CC[C@H](C)[C@H](N)C(=O)N[C@@H](CCCCN)C(=O)N1CCN(c2ccc3ncn(CC(=O)N[C@@H](CCCNC(=N)N)C(=O)N[C@@H](Cc4c[nH]cn4)C(=O)N[C@@H](Cc4ccc(O)cc4)C(=O)N[C@@H](CC(C)C)C(=O)N[C@@H](CC(N)=O)C(=O)N[C@@H](CC(C)C)C(=O)N[C@H](C(=O)N[C@H](C(=O)N[C@@H](CCCNC(=N)N)C(=O)N[C@@H](CCC(N)=O)C(=O)N(C)[C@@H](CCCNC(=N)N)C(=O)N[C@@H](Cc4c[nH]c5ccccc45)C(N)=O)[C@@H](C)O)C(C)C)c(=O)c3c2)CC1) [H-Ile-Lys-Pqa-Arg-His-Tyr-Leu-Asn-Leu-Val-Thr-Arg-Gln-NMe)Arg-Trp-NH2] | > 5000 nM | 0.454 nM | 1.06 nM | > 5000 nM | > 5000 nM |
| Ac-IK(PEG30,000 SPA)[Pqa]RHYLNWVTRQ[NMeR]Y-NH2 [Ac-Ile(PEG-30,000)CH2CH2CO(ε)Lys-Pqa-Arg-His-Tyr-Leu-Asn-Trp-Val-Thr-Arg-Gln-(NMe)Arg-Tyr-NH2] | > 5000 nM | 549 nM | 24.4 nM | > 5000 nM | > 5000 nM |
